Data published in US20230104769A1 (MABWELL SHANGHAI BIOSCIENCE, published 2023).

Molecular target: T1, recombinant human PD-1 protein (NCBI accession No.: NP_005009.2, 21aa-167aa) (human, UniProt Q15116 21-167)
T1 construct: range 21-167; also called recombinant human PD-1 extracellular domain protein; PD-1-ECD
Experiment: BLI Octet QKe, antibody on the sensor, single 100 nM PD-1
Description: Determination of the binding kinetics: the affinity of the antibody was determined with Octet QKe system from Fortebio using an assay of capturing biotin-labeled antibody with streptavidin. […] Both the binding and dissociating were conducted for 300 s.
The comparison of affinity between the variant antibodies and the parent antibody was performed using Octet QKe system supplied by Fortebio.

T1 sequence (Q15116 21-167 limits assumed, form in doubt): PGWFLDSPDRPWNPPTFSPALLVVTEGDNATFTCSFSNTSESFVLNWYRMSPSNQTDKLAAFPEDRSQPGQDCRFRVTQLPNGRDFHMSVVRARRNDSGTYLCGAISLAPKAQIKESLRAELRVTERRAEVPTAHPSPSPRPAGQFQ

Binder | Kd
h317 variant antibody, heavy chain D33S (antibody, V domains shown, Variant of h317) VH: EVQLVESGGGLVKPGGSLRLSCAASGFTFSSYSMSWVRQAPGKGLEWVATISGGGSYTYYPDSVKGRFTISRDNAKNSLYLQMNSLRAEDTAVYYCASPDSSGVAYWGQGTLVTVSS VL: DIVMTQSPLSLPVTPGEPASITCKASQDVETVVAWYLQKPGQSPRLLIYWASTRHTGVPDRFSGSGSGTDFTLKISRVEAEDVGVYYCQQYSRYPWTFGQGTKL | 2.89 nM
h317 variant antibody, heavy chain S31D (antibody, V domains shown, Variant of h317) VH: EVQLVESGGGLVKPGGSLRLSCAASGFTFSDYDMSWVRQAPGKGLEWVATISGGGSYTYYPDSVKGRFTISRDNAKNSLYLQMNSLRAEDTAVYYCASPDSSGVAYWGQGTLVTVSS VL: DIVMTQSPLSLPVTPGEPASITCKASQDVETVVAWYLQKPGQSPRLLIYWASTRHTGVPDRFSGSGSGTDFTLKISRVEAEDVGVYYCQQYSRYPWTFGQGTKL | 5.12 nM
h317 variant antibody, heavy chain G55S (antibody, V domains shown, Variant of h317) VH: EVQLVESGGGLVKPGGSLRLSCAASGFTFSSYDMSWVRQAPGKGLEWVATISGGSSYTYYPDSVKGRFTISRDNAKNSLYLQMNSLRAEDTAVYYCASPDSSGVAYWGQGTLVTVSS VL: DIVMTQSPLSLPVTPGEPASITCKASQDVETVVAWYLQKPGQSPRLLIYWASTRHTGVPDRFSGSGSGTDFTLKISRVEAEDVGVYYCQQYSRYPWTFGQGTKL | 9.09 nM
h317 variant antibody, heavy chain G54S and Y59A (antibody, V domains shown, Variant of h317; also called 54S(CDR2) 59A(CDR2)) VH: EVQLVESGGGLVKPGGSLRLSCAASGFTFSSYDMSWVRQAPGKGLEWVATISGSGSYTAYPDSVKGRFTISRDNAKNSLYLQMNSLRAEDTAVYYCASPDSSGVAYWGQGTLVTVSS VL: DIVMTQSPLSLPVTPGEPASITCKASQDVETVVAWYLQKPGQSPRLLIYWASTRHTGVPDRFSGSGSGTDFTLKISRVEAEDVGVYYCQQYSRYPWTFGQGTKL | 2.68 nM
h317 variant antibody, heavy chain G53Y (antibody, V domains shown, Variant of h317) VH: EVQLVESGGGLVKPGGSLRLSCAASGFTFSSYDMSWVRQAPGKGLEWVATISYGGSYTYYPDSVKGRFTISRDNAKNSLYLQMNSLRAEDTAVYYCASPDSSGVAYWGQGTLVTVSS VL: DIVMTQSPLSLPVTPGEPASITCKASQDVETVVAWYLQKPGQSPRLLIYWASTRHTGVPDRFSGSGSGTDFTLKISRVEAEDVGVYYCQQYSRYPWTFGQGTKL | 10.3 nM
h317 variant antibody, heavy chain G54S (antibody, V domains shown, Variant of h317) VH: EVQLVESGGGLVKPGGSLRLSCAASGFTFSSYDMSWVRQAPGKGLEWVATISGSGSYTYYPDSVKGRFTISRDNAKNSLYLQMNSLRAEDTAVYYCASPDSSGVAYWGQGTLVTVSS VL: DIVMTQSPLSLPVTPGEPASITCKASQDVETVVAWYLQKPGQSPRLLIYWASTRHTGVPDRFSGSGSGTDFTLKISRVEAEDVGVYYCQQYSRYPWTFGQGTKL | 1.32 nM
h317 variant antibody, heavy chain S56G (antibody, V domains shown, Variant of h317) VH: EVQLVESGGGLVKPGGSLRLSCAASGFTFSSYDMSWVRQAPGKGLEWVATISGGGGYTYYPDSVKGRFTISRDNAKNSLYLQMNSLRAEDTAVYYCASPDSSGVAYWGQGTLVTVSS VL: DIVMTQSPLSLPVTPGEPASITCKASQDVETVVAWYLQKPGQSPRLLIYWASTRHTGVPDRFSGSGSGTDFTLKISRVEAEDVGVYYCQQYSRYPWTFGQGTKL | 148 nM
h317 variant antibody, heavy chain D33Y (antibody, V domains shown, Variant of h317) VH: EVQLVESGGGLVKPGGSLRLSCAASGFTFSSYYMSWVRQAPGKGLEWVATISGGGSYTYYPDSVKGRFTISRDNAKNSLYLQMNSLRAEDTAVYYCASPDSSGVAYWGQGTLVTVSS VL: DIVMTQSPLSLPVTPGEPASITCKASQDVETVVAWYLQKPGQSPRLLIYWASTRHTGVPDRFSGSGSGTDFTLKISRVEAEDVGVYYCQQYSRYPWTFGQGTKL | 236 nM
h317 variant antibody, heavy chain G54D (antibody, V domains shown, Variant of h317) VH: EVQLVESGGGLVKPGGSLRLSCAASGFTFSSYDMSWVRQAPGKGLEWVATISGDGSYTYYPDSVKGRFTISRDNAKNSLYLQMNSLRAEDTAVYYCASPDSSGVAYWGQGTLVTVSS VL: DIVMTQSPLSLPVTPGEPASITCKASQDVETVVAWYLQKPGQSPRLLIYWASTRHTGVPDRFSGSGSGTDFTLKISRVEAEDVGVYYCQQYSRYPWTFGQGTKL | 29.3 nM
h317 variant antibody, heavy chain D100E (antibody, V domains shown, Variant of h317) VH: EVQLVESGGGLVKPGGSLRLSCAASGFTFSSYDMSWVRQAPGKGLEWVATISGGGSYTYYPDSVKGRFTISRDNAKNSLYLQMNSLRAEDTAVYYCASPESSGVAYWGQGTLVTVSS VL: DIVMTQSPLSLPVTPGEPASITCKASQDVETVVAWYLQKPGQSPRLLIYWASTRHTGVPDRFSGSGSGTDFTLKISRVEAEDVGVYYCQQYSRYPWTFGQGTKL | 74.4 nM
h317 variant antibody, heavy chain G53S (antibody, V domains shown, Variant of h317) VH: EVQLVESGGGLVKPGGSLRLSCAASGFTFSSYDMSWVRQAPGKGLEWVATISSGGSYTYYPDSVKGRFTISRDNAKNSLYLQMNSLRAEDTAVYYCASPDSSGVAYWGQGTLVTVSS VL: DIVMTQSPLSLPVTPGEPASITCKASQDVETVVAWYLQKPGQSPRLLIYWASTRHTGVPDRFSGSGSGTDFTLKISRVEAEDVGVYYCQQYSRYPWTFGQGTKL | 5.53 nM
h317 variant antibody, heavy chain S52W (antibody, V domains shown, Variant of h317) VH: EVQLVESGGGLVKPGGSLRLSCAASGFTFSSYDMSWVRQAPGKGLEWVATIWGGGSYTYYPDSVKGRFTISRDNAKNSLYLQMNSLRAEDTAVYYCASPDSSGVAYWGQGTLVTVSS VL: DIVMTQSPLSLPVTPGEPASITCKASQDVETVVAWYLQKPGQSPRLLIYWASTRHTGVPDRFSGSGSGTDFTLKISRVEAEDVGVYYCQQYSRYPWTFGQGTKL | 39.4 nM
h317 variant antibody, heavy chain S52K (antibody, V domains shown, Variant of h317) VH: EVQLVESGGGLVKPGGSLRLSCAASGFTFSSYDMSWVRQAPGKGLEWVATIKGGGSYTYYPDSVKGRFTISRDNAKNSLYLQMNSLRAEDTAVYYCASPDSSGVAYWGQGTLVTVSS VL: DIVMTQSPLSLPVTPGEPASITCKASQDVETVVAWYLQKPGQSPRLLIYWASTRHTGVPDRFSGSGSGTDFTLKISRVEAEDVGVYYCQQYSRYPWTFGQGTKL | 27.2 nM
h317 variant antibody, heavy chain D100Y (antibody, V domains shown, Variant of h317) VH: EVQLVESGGGLVKPGGSLRLSCAASGFTFSSYDMSWVRQAPGKGLEWVATISGGGSYTYYPDSVKGRFTISRDNAKNSLYLQMNSLRAEDTAVYYCASPYSSGVAYWGQGTLVTVSS VL: DIVMTQSPLSLPVTPGEPASITCKASQDVETVVAWYLQKPGQSPRLLIYWASTRHTGVPDRFSGSGSGTDFTLKISRVEAEDVGVYYCQQYSRYPWTFGQGTKL | 8.23 nM
h317 variant antibody, heavy chain D33S and G54S (antibody, V domains shown, Variant of h317; also called 33S(CDR1) 54S(CDR2)) VH: EVQLVESGGGLVKPGGSLRLSCAASGFTFSSYSMSWVRQAPGKGLEWVATISGSGSYTYYPDSVKGRFTISRDNAKNSLYLQMNSLRAEDTAVYYCASPDSSGVAYWGQGTLVTVSS VL: DIVMTQSPLSLPVTPGEPASITCKASQDVETVVAWYLQKPGQSPRLLIYWASTRHTGVPDRFSGSGSGTDFTLKISRVEAEDVGVYYCQQYSRYPWTFGQGTKL | 3.12 nM
h317 variant antibody, heavy chain D33S and Y59A (antibody, V domains shown, Variant of h317; also called 33S(CDRH 59A(CDR2))) VH: EVQLVESGGGLVKPGGSLRLSCAASGFTFSSYSMSWVRQAPGKGLEWVATISGGGSYTAYPDSVKGRFTISRDNAKNSLYLQMNSLRAEDTAVYYCASPDSSGVAYWGQGTLVTVSS VL: DIVMTQSPLSLPVTPGEPASITCKASQDVETVVAWYLQKPGQSPRLLIYWASTRHTGVPDRFSGSGSGTDFTLKISRVEAEDVGVYYCQQYSRYPWTFGQGTKL | 3.96 nM
